B1: SV4 (designed binder)
chain: MEEELQIIQPDLSVSVAAGESAILHCTITSLFPVGPIQWFRGAGPARVLIYNQRQGPFPRVTTVSETTKRENMDFSISISNITPADAGTYYCIKFRKGSPDTEFLSGAGTELSVRAKPS
notes: also called SV4 protein
B2: SV4-iLP (other)
chain: B1 chain
notes: also called LPD-SV4; SV4-conjugated iLP
B3: SV4-DSPE (other)
chain: B1 chain
notes: also called DSPE-SV4; DSPE-PEG2000-SV4

Chain of recombinant CD47 protein (Q08722 19-139 limits assumed): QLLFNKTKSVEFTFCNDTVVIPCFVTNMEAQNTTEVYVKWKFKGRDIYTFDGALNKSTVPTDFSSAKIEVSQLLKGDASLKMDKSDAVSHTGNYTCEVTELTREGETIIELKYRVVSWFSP

This assay has as its target recombinant CD47 protein (UniProt Q08722 19-139). The experiment in a line: SPR; recombinant CD47 coupled to CM5 chip (250 RU); 1:1 model, global fit. In general terms: SPR reads the build-up and loss of mass on a sensor chip optically.
Procedure: Specifically, the recombinant CD47 protein was conjugated to the surface of the CM5 chip by a target SPR reaction of 250 RU through an EDC-NHS reaction to be used, and for HBS-P, the sensogram obtained through a process of association for 3 minutes and dissociation for 10 minutes at a flow rate of 30 µL/minutes was analyzed with the BiaEvaluation software using a 1:1 binding model and global fitting.
With B1, the Kd came to 1.67 nM, the koff was 0.000275 s⁻¹ and the kon was found to be 164000 M⁻¹ s⁻¹.

Turning to B2, the Kd came to 1.27 nM, the koff is 0.000395 s⁻¹ and the kon came to 312000 M⁻¹ s⁻¹.

As to B3, the Kd stood at 1.13 nM, the koff was 0.000256 s⁻¹ and the kon worked out at 227000 M⁻¹ s⁻¹.

A word on the Kd: it is the free concentration of one partner at which half of the binding sites on the other are occupied at equilibrium, for simple one-to-one binding. As a reminder, the koff is the first-order rate constant of dissociation. Broadly, the kon is the rate constant with which the complex forms.

For the origin of these results see patent US20230322893A1 (BPGENE, published 2023).
